Experimental data reported in publication PMC11766367, “Structure-Function Relationship of the β-Hairpin of Thermus thermophilus HB27 Laccase” (International Journal of Molecular Sciences, 2025).

Legend:
purified protein = substrate: COc1ccccc1O; assay: purified protein; settings: pH 6.0, 61.5 °C, free copper contradictory: caption says without, methods and text suggest 1 mM CuSO4 added
[1] = substrate: COc1cccc(OC)c1O; assay: spectrophotometric oxidation assay, Michaelis-Menten fit; type: biochemical, Thermus thermophilus; settings: pH 7.0, 61.5 °C, free copper contradictory: caption says with, methods and text suggest without, pH 7.0
Excerpt: (§1) spectrophotometric oxidation assay, Michaelis-Menten fit on Tth-Lac

[2] = substrate: COc1cc(C=NN=Cc2cc(OC)c(O)c(OC)c2)cc(OC)c1O; assay: as above; type: biochemical, Thermus thermophilus; settings: pH 6.0, 61.5 °C, free copper contradictory: caption says without, methods and text suggest 1 mM CuSO4 added
Excerpt: as §1

[3] = substrate: CCn1c(=NN=c2sc3cc(S(=O)(=O)O)ccc3n2CC)sc2cc(S(=O)(=O)O)ccc21; assay: as above; type: biochemical, Thermus thermophilus; settings: pH 6.0, 61.5 °C, free copper contradictory: caption says without, methods and text suggest 1 mM CuSO4 added
Excerpt: as §1

B1: Tth-Lac (Thermus thermophilus HB27) (protein)
chain: QGPSFPEPKVVRSQGGLLSLKLSATPTPLALAGQRATLLTYGGSFPGPTLRVRPRDTVRLTLENRLPEPTNLHWHGLPISPKVDDPFLEIPPGESWTYEFTVPKELAGTFWYHPHLHGRVAPQLFAGLLGALVVESSLDAIPELREAEEHLLVLKDLALQGGRPAPHTPMDWMNGKEGDLVLVNGALRPTLVAQKATLRLRLLNASNARYYRLALQDHPLYLIAADGGFLEEPLEVSELLLAPGERAEVLVRLRKEGRFLLQALPYDRGAMGMMDMGGMAHAMPQGPSRPETLLYLIAPKNPKPLPLPKALSPFPTLPAPVVTRRLVLTEDMMAARFFINGQVFDHRRVDLKGQAQTVEVWEVENQGDMDHPFHLHVHPFQVLSVGGRPFPYRAWKDVVNLKAGEVARLLVPLREKGRTVFHCHIVEHEDRGMMGVLEVG
notes: signal peptide removed, gene starts at residue 23; pET-22b(+), E. coli BL21 Gold (DE3) with CuSO4; heat step and CM-Sepharose; no tag mentioned; monomer
In the case of B1, the Km (purified protein) is reported as 21 ± 2 µM, the Vmax (purified protein) is reported as 5.14 ± 0.11 µmol/mg/min and the Km [1] is reported as 880 ± 80 µM. It also gave a Vmax [1] of 6.00 ± 0.24 µmol/mg/min, a Km ([2]; pH 6.0) of 6.17 ± 0.5 µM and a Vmax ([2]; pH 6.0) of 13.92 ± 0.31 µmol/mg/min. The Km ([3]; pH 6.0) was 1030 ± 160 µM and the Vmax ([3]; pH 6.0) was 28.48 ± 1.93 µmol/mg/min.

B2: Tth-Lac (Thermus thermophilus HB27; DEL292-307/G291S) (protein)
chain: QGPSFPEPKVVRSQGGLLSLKLSATPTPLALAGQRATLLTYGGSFPGPTLRVRPRDTVRLTLENRLPEPTNLHWHGLPISPKVDDPFLEIPPGESWTYEFTVPKELAGTFWYHPHLHGRVAPQLFAGLLGALVVESSLDAIPELREAEEHLLVLKDLALQGGRPAPHTPMDWMNGKEGDLVLVNGALRPTLVAQKATLRLRLLNASNARYYRLALQDHPLYLIAADGGFLEEPLEVSELLLAPGERAEVLVRLRKEGRFLLQALPYDRSGPSRPETLLYLIAPKNPKPLPLPKALSPFPTLPAPVVTRRLVLTEDMMAARFFINGQVFDHRRVDLKGQAQTVEVWEVENQGDMDHPFHLHVHPFQVLSVGGRPFPYRAWKDVVNLKAGEVARLLVPLREKGRTVFHCHIVEHEDRGMMGVLEVG
notes: as for B1
Work on B2 yielded a Km (purified protein; C1Tth-Lac) of 45 ± 8 µM, a Vmax (purified protein; C1Tth-Lac) of 9.47 ± 0.46 µmol/mg/min and a Km ([2]; C1Tth-Lac) of 7.83 ± 1.35 µM. It also gave a Vmax ([2]; C1Tth-Lac) of 14.60 ± 0.80 µmol/mg/min, a Km ([3]; C1Tth-Lac) of 280 ± 60 µM and a Vmax ([3]; C1Tth-Lac) of 12.34 ± 0.91 µmol/mg/min.

B3: Tth-Lac (Thermus thermophilus HB27; A304G/DEL295-303) (protein)
chain: QGPSFPEPKVVRSQGGLLSLKLSATPTPLALAGQRATLLTYGGSFPGPTLRVRPRDTVRLTLENRLPEPTNLHWHGLPISPKVDDPFLEIPPGESWTYEFTVPKELAGTFWYHPHLHGRVAPQLFAGLLGALVVESSLDAIPELREAEEHLLVLKDLALQGGRPAPHTPMDWMNGKEGDLVLVNGALRPTLVAQKATLRLRLLNASNARYYRLALQDHPLYLIAADGGFLEEPLEVSELLLAPGERAEVLVRLRKEGRFLLQALPYDRGAMGGMPQGPSRPETLLYLIAPKNPKPLPLPKALSPFPTLPAPVVTRRLVLTEDMMAARFFINGQVFDHRRVDLKGQAQTVEVWEVENQGDMDHPFHLHVHPFQVLSVGGRPFPYRAWKDVVNLKAGEVARLLVPLREKGRTVFHCHIVEHEDRGMMGVLEVG
notes: as for B1
In the case of B3, the Km (purified protein; P1Tth-Lac) is reported as 49.9 ± 6 µM, the Vmax (purified protein; P1Tth-Lac) is reported as 9.57 ± 0.47 µmol/mg/min and the Km ([1]; P1Tth-Lac) is reported as 430 ± 60 µM. For the same protein, the Vmax ([1]; P1Tth-Lac) was 1.45 ± 0.07 µmol/mg/min, the Km ([3]; P1Tth-Lac, pH 6.0) was 1090 ± 160 µM and the Vmax ([3]; P1Tth-Lac, pH 6.0) was 21.48 ± 1.81 µmol/mg/min.

B4: Tth-Lac (Thermus thermophilus HB27; A292G/DEL293-307) (protein)
chain: QGPSFPEPKVVRSQGGLLSLKLSATPTPLALAGQRATLLTYGGSFPGPTLRVRPRDTVRLTLENRLPEPTNLHWHGLPISPKVDDPFLEIPPGESWTYEFTVPKELAGTFWYHPHLHGRVAPQLFAGLLGALVVESSLDAIPELREAEEHLLVLKDLALQGGRPAPHTPMDWMNGKEGDLVLVNGALRPTLVAQKATLRLRLLNASNARYYRLALQDHPLYLIAADGGFLEEPLEVSELLLAPGERAEVLVRLRKEGRFLLQALPYDRGGGPSRPETLLYLIAPKNPKPLPLPKALSPFPTLPAPVVTRRLVLTEDMMAARFFINGQVFDHRRVDLKGQAQTVEVWEVENQGDMDHPFHLHVHPFQVLSVGGRPFPYRAWKDVVNLKAGEVARLLVPLREKGRTVFHCHIVEHEDRGMMGVLEVG
notes: as for B1
In the case of B4, the Km (purified protein; C2Tth-Lac) is reported as 37 ± 5 µM, the Vmax (purified protein; C2Tth-Lac) is reported as 3.98 ± 0.21 µmol/mg/min and the Km ([1]; C2Tth-Lac) is reported as 220 ± 30 µM. The Vmax ([1]; C2Tth-Lac) was 0.87 ± 0.4 µmol/mg/min, the Km ([2]; C2Tth-Lac, pH 6.0) was 7.2 ± 1.13 µM and the Vmax ([2]; C2Tth-Lac, pH 6.0) was 7.20 ± 0.46 µmol/mg/min. For the same protein, the Km ([3]; C2Tth-Lac, pH 6.0) was 940 ± 190 µM and the Vmax ([3]; C2Tth-Lac, pH 6.0) was 14.80 ± 1.43 µmol/mg/min.
